Assay results as given in patent US10400249B2, “HPPD variants and methods of use” (priority 2014, dated 2019).

Key:
[1] = test system: Pseudomonas fluorescens HPPD protein; experiment: OD assay: HPPD activity and pI50 from HPP remaining after derivatisation with DNP; assay type: biochemical; conditions: for Activity DeltaE/24 min μg Protein: HPPD enzyme activity of the clone; for tolerance (pI50) DKN: inhibitor diketonitrile (DKN), negative log of molar concentration; for tolerance (pI50) MST: inhibitor mesotrione (MST); for tolerance (pI50) TBT: inhibitor tembotrione (TBT); for tolerance (pI50) Cmpd. 2: inhibitor Cmpd. 2
Method: (§1) HPPD proteins were produced and purified as described in WO2011/076882. The activity of HPPD proteins in absence or presence of HPPD inhibitors was determined using either the so called OD assay or the HGD assay.
(§2) • a) The OD assay: The HPPD activity was determined colourimetrically by measuring the amount of HPP remaining in the assay mixture at the end of the incubation period after derivatisation of HPP with 2,4-dinitrophenylhydrazine (DNP) to form an amber-brown colored 2,4-dinitrophenylhydrazone under alkaline conditions. The assay was carried out at room temperature in Greiner F-bottom 96 well microplates. The assay mixture contained 50 mM Tris-HCl pH 7.8, 0.5 mM HPP, 10 mM ascorbate, 650 units of catalase and appropriate amounts of purified HPPD enzyme in a total assay volume of 100 μl. The reaction was started by the addition of enzyme. After an incubation time of 24 minutes, the reaction was stopped by the addition of 50 μl of a solution of 0.04% DNP dissolved in 3.8 N HCl. After a further 15-minute incubation period 100 μl of a 5 N KOH solution was added to the reaction mixture and the amount of unconsumed HPP was measured photometrically at 405 nm. Enzyme activity was calculated as the difference in E405 between assays lacking enzyme (negative control) and the enzyme containing assays (ΔE405=E405(negative control)−E405). Enzyme activity (nmol substrate consumed per min) was calculated from a calibration curve generated from HPP. pI50-values (the negative log value of the concentration of inhibitor necessary to inhibit 50% of the enzyme activity in molar concentration were determined from dose-response plots of HPPD activity versus inhibitor concentration tested (5.0×10^−6, 1.0×10^−5, 2.5×10^−5, 4.0×10^−5, 7.0×10^−5, 1.0×10^−4, 2.0×10^−4 and 5.0×10^−4M) using the 4 Parameter Logistic Model or Sigmoidal Dose-Response Model of the ID Business Solutions Ltd. XLfit software suite. The result “>5.6” means that the inhibition at the lowest inhibitor concentration tested was higher than 85% and the pI50-value could therefore not be precisely calculated within in the range of concentration of inhibitor tested. The result “<2.5” means that the inhibition at the highest inhibitor concentration tested was lower than 25% and the pI50-value could therefore not be precisely calculated within in the range of concentration of inhibitor tested. “n.d.” means not determined. • b) The HGD assay: With the HGD assay HPPD activity was measured at room temperature by adding appropriate amounts of HPPD to a solution of 200 mM Tris-HCl pH 7.6, 10 mM ascorbate, 20 μM FeSO4, 650 units of catalase, 8 μg HGA dioxygenase (HGA: homogentisate) and 600 μM HPP in a total volume of 1 ml. Initial reaction rates in the absence or presence of inhibitors were determined from the increase in absorbance at 318 nm due to the formation of maleylacetoacetate (ε318=11,900 M−1 cm-1). pI50-values (the negative log value of the concentration of inhibitor necessary to inhibit 50% of the enzyme activity in molar concentration were determined from dose-response plots of HPPD activity versus inhibitor concentration tested using the 4 Parameter Logistic Model or Sigmoidal Dose-Response Model of the ID Business Solutions Ltd. XLfit software suite. Due to the UV absorption of the HPPD inhibitors tested, inhibitor concentrations >100 μM could not be tested. The result “<4” means that the inhibition at 100 μM inhibitor concentration was lower than 25% and the pI50-value could therefore not be precisely calculated within in the range of concentration of inhibitor tested. “n.d.” means not determined. The HGD assay allowed to continuously follow HPPD-catalyzed HGA formation over time was therefore used to determine the inhibition type of the HPPD inhibitors tested. […] When in the presence of an inhibitor the HPPD activity was inhibited but the inhibition was found not to […] in a time-dependent manner, the inhibitor was called reversible (abbreviation “rev”). […]

[2] = test system: Pseudomonas fluorescens HPPD protein; experiment: HGD assay: HPPD activity coupled to HGA dioxygenase, pI50 and type of inhibition (time-course); assay type: biochemical; conditions: for tolerance (pI50) Cmpd. 2: inhibitor Cmpd. 2
Method: as §1, §2

B1: K131: PfHPPD variant E335P, G336Y, K339A, A340Q (protein)
chain: MADLYENPMGLMGFEFIEFASPTPGTLEPIFEIMGFTKVATHRSKNVHLYRQGEINLILNNEPNSIASYFAAEHGPSVCGMAFRVKDSQKAYNRALELGAQPIHIDTGPMELNLPAIKGIGGAPLYLIDRFGEGSSIYDIDFVYLEGVERNPVGAGLKVIDHLTHNVYRGRMVYWANFYEKLFNFREARYFDIKGEYTGLTSKAMSAPDGMIRIPLNEESSKGAGQIEEFLMQFNGEGIQHVAFLTDDLVKTWDALKKIGMRFMTAPPDTYYEMLEGRLPDHGEPVDQLQARGILLDGSSVEGDKRLLLQIFSETLMGPVFFEFIQRKGDDGFGPYNFAQLFESIERDQVRRGVLTAD
modifications: HPPD variant - K131
notes: PfHPPD variant E335P, G336Y, K339A, A340Q
- Activity DeltaE/24 min μg Protein [1]: 0.50 DeltaE/24 min μg Protein
- tolerance (pI50) DKN [1]: 3.3
- tolerance (pI50) MST [1]: 3.7
- tolerance (pI50) TBT [1]: 4.8
- mechanism of inhibition by Cmpd. 2, time-course of inhibition [2]: fully reversible inhibitor
- tolerance (pI50) Cmpd. 2 ([2]; HGD assay): 6.2

B2: K132: PfHPPD variant E335P, G336Y, A340E (protein)
chain: MADLYENPMGLMGFEFIEFASPTPGTLEPIFEIMGFTKVATHRSKNVHLYRQGEINLILNNEPNSIASYFAAEHGPSVCGMAFRVKDSQKAYNRALELGAQPIHIDTGPMELNLPAIKGIGGAPLYLIDRFGEGSSIYDIDFVYLEGVERNPVGAGLKVIDHLTHNVYRGRMVYWANFYEKLFNFREARYFDIKGEYTGLTSKAMSAPDGMIRIPLNEESSKGAGQIEEFLMQFNGEGIQHVAFLTDDLVKTWDALKKIGMRFMTAPPDTYYEMLEGRLPDHGEPVDQLQARGILLDGSSVEGDKRLLLQIFSETLMGPVFFEFIQRKGDDGFGPYNFKELFESIERDQVRRGVLTAD
modifications: HPPD variant - K132
notes: PfHPPD variant E335P, G336Y, A340E
- Activity DeltaE/24 min μg Protein [1]: 0.50 DeltaE/24 min μg Protein
- tolerance (pI50) DKN [1]: 3.1
- tolerance (pI50) MST [1]: 3.7
- tolerance (pI50) TBT [1]: 4.8
- mechanism of inhibition by Cmpd. 2, time-course of inhibition [2]: fully reversible inhibitor
- tolerance (pI50) Cmpd. 1 ([2]; inhibitor Cmpd. 1, HGD assay): 5.5
- tolerance (pI50) Cmpd. 2 ([2]; HGD assay): 5.9
- tolerance (pI50) Cmpd. 4 ([2]; inhibitor Cmpd. 4, HGD assay): 6.9

B3: K408: PfHPPD variant A188G, R189D, P215N, E335P, G336F, A340E (protein)
chain: MADLYENPMGLMGFEFIEFASPTPGTLEPIFEIMGFTKVATHRSKNVHLYRQGEINLILNNEPNSIASYFAAEHGPSVCGMAFRVKDSQKAYNRALELGAQPIHIDTGPMELNLPAIKGIGGAPLYLIDRFGEGSSIYDIDFVYLEGVERNPVGAGLKVIDHLTHNVYRGRMVYWANFYEKLFNFREGDYFDIKGEYTGLTSKAMSAPDGMIRINLNEESSKGAGQIEEFLMQFNGEGIQHVAFLTDDLVKTWDALKKIGMRFMTAPPDTYYEMLEGRLPDHGEPVDQLQARGILLDGSSVEGDKRLLLQIFSETLMGPVFFEFIQRKGDDGFGPFNFKELFESIERDQVRRGVLTAD
modifications: HPPD variant - K408
notes: PfHPPD variant A188G, R189D, P215N, E335P, G336F, A340E
- Activity DeltaE/24 min μg Protein [1]: 0.56 DeltaE/24 min μg Protein
- tolerance (pI50) Cmpd. 2 [1]: 5.7
- tolerance (pI50) DKN [1]: <2.5
- tolerance (pI50) MST [1]: 3.6
- tolerance (pI50) TBT [1]: 4.6

B4: K203: PfHPPD variant P215L, E335P, G336Y, A340E (protein)
chain: MADLYENPMGLMGFEFIEFASPTPGTLEPIFEIMGFTKVATHRSKNVHLYRQGEINLILNNEPNSIASYFAAEHGPSVCGMAFRVKDSQKAYNRALELGAQPIHIDTGPMELNLPAIKGIGGAPLYLIDRFGEGSSIYDIDFVYLEGVERNPVGAGLKVIDHLTHNVYRGRMVYWANFYEKLFNFREARYFDIKGEYTGLTSKAMSAPDGMIRILLNEESSKGAGQIEEFLMQFNGEGIQHVAFLTDDLVKTWDALKKIGMRFMTAPPDTYYEMLEGRLPDHGEPVDQLQARGILLDGSSVEGDKRLLLQIFSETLMGPVFFEFIQRKGDDGFGPYNFKELFESIERDQVRRGVLTAD
modifications: HPPD variant - K203
notes: PfHPPD variant P215L, E335P, G336Y, A340E
- Activity DeltaE/24 min μg Protein [1]: 0.08 DeltaE/24 min μg Protein
- tolerance (pI50) DKN [1]: <2.5
- tolerance (pI50) MST [1]: 3.0
- tolerance (pI50) TBT [1]: 3.9
- mechanism of inhibition by Cmpd. 2, time-course of inhibition [2]: fully reversible inhibitor
- tolerance (pI50) Cmpd. 2 ([2]; HGD assay): 5.3

B5: K137: PfHPPD variant P215L, E335P, G336Y (protein)
chain: MADLYENPMGLMGFEFIEFASPTPGTLEPIFEIMGFTKVATHRSKNVHLYRQGEINLILNNEPNSIASYFAAEHGPSVCGMAFRVKDSQKAYNRALELGAQPIHIDTGPMELNLPAIKGIGGAPLYLIDRFGEGSSIYDIDFVYLEGVERNPVGAGLKVIDHLTHNVYRGRMVYWANFYEKLFNFREARYFDIKGEYTGLTSKAMSAPDGMIRILLNEESSKGAGQIEEFLMQFNGEGIQHVAFLTDDLVKTWDALKKIGMRFMTAPPDTYYEMLEGRLPDHGEPVDQLQARGILLDGSSVEGDKRLLLQIFSETLMGPVFFEFIQRKGDDGFGPYNFKALFESIERDQVRRGVLTAD
modifications: HPPD variant - K137
notes: PfHPPD variant P215L, E335P, G336Y
- Activity DeltaE/24 min μg Protein [1]: 0.12 DeltaE/24 min μg Protein
- tolerance (pI50) DKN [1]: 2.8
- tolerance (pI50) MST [1]: 3.4
- tolerance (pI50) TBT [1]: 4.7
- mechanism of inhibition by Cmpd. 2, time-course of inhibition [2]: fully reversible inhibitor
- tolerance (pI50) Cmpd. 2 ([2]; HGD assay): 5.5

B6: K406: PfHPPD variant A188G, R189G, P215N, E335P, G336F, A340E (protein)
chain: MADLYENPMGLMGFEFIEFASPTPGTLEPIFEIMGFTKVATHRSKNVHLYRQGEINLILNNEPNSIASYFAAEHGPSVCGMAFRVKDSQKAYNRALELGAQPIHIDTGPMELNLPAIKGIGGAPLYLIDRFGEGSSIYDIDFVYLEGVERNPVGAGLKVIDHLTHNVYRGRMVYWANFYEKLFNFREGGYFDIKGEYTGLTSKAMSAPDGMIRINLNEESSKGAGQIEEFLMQFNGEGIQHVAFLTDDLVKTWDALKKIGMRFMTAPPDTYYEMLEGRLPDHGEPVDQLQARGILLDGSSVEGDKRLLLQIFSETLMGPVFFEFIQRKGDDGFGPFNFKELFESIERDQVRRGVLTAD
modifications: HPPD variant - K406
notes: PfHPPD variant A188G, R189G, P215N, E335P, G336F, A340E
- Activity DeltaE/24 min μg Protein [1]: 0.52 DeltaE/24 min μg Protein
- tolerance (pI50) Cmpd. 2 [1]: 5.6
- tolerance (pI50) DKN [1]: <2.5
- tolerance (pI50) MST [1]: 3.5
- tolerance (pI50) TBT [1]: 4.5

B7: K407: PfHPPD variant A188G, R189E, P215N, E335P, G336F, A340E (protein)
chain: MADLYENPMGLMGFEFIEFASPTPGTLEPIFEIMGFTKVATHRSKNVHLYRQGEINLILNNEPNSIASYFAAEHGPSVCGMAFRVKDSQKAYNRALELGAQPIHIDTGPMELNLPAIKGIGGAPLYLIDRFGEGSSIYDIDFVYLEGVERNPVGAGLKVIDHLTHNVYRGRMVYWANFYEKLFNFREGEYFDIKGEYTGLTSKAMSAPDGMIRINLNEESSKGAGQIEEFLMQFNGEGIQHVAFLTDDLVKTWDALKKIGMRFMTAPPDTYYEMLEGRLPDHGEPVDQLQARGILLDGSSVEGDKRLLLQIFSETLMGPVFFEFIQRKGDDGFGPFNFKELFESIERDQVRRGVLTAD
modifications: HPPD variant - K407
notes: PfHPPD variant A188G, R189E, P215N, E335P, G336F, A340E
- Activity DeltaE/24 min μg Protein [1]: 0.41 DeltaE/24 min μg Protein
- tolerance (pI50) Cmpd. 2 [1]: 5.7
- tolerance (pI50) DKN [1]: <2.5
- tolerance (pI50) MST [1]: 3.6
- tolerance (pI50) TBT [1]: 4.6
